Results taken from publication PMC8722725, “Histone H3 deacetylation promotes host cell viability for efficient infection by Listeria monocytogenes” (PLoS Pathogens, 2021).

Molecular target: T1, mCherry-TDP-43 (UniProt Q13148 1-414)
T1 construct: TDP-43, cloned from the plasmid TDP43 NOTAG1 (Addgene #28206); also called pmCherry TDP-43; source: HeLa, co-transfected, in lysate
Assay: co-IP; RFP-Trap agarose beads on lysate of HeLa cells co-transfected with mCherry-TDP-43 and SIRT2-GFP variants; blot for TDP-43 and GFP
Details: partners not purified

T1 sequence (Q13148 whole entry): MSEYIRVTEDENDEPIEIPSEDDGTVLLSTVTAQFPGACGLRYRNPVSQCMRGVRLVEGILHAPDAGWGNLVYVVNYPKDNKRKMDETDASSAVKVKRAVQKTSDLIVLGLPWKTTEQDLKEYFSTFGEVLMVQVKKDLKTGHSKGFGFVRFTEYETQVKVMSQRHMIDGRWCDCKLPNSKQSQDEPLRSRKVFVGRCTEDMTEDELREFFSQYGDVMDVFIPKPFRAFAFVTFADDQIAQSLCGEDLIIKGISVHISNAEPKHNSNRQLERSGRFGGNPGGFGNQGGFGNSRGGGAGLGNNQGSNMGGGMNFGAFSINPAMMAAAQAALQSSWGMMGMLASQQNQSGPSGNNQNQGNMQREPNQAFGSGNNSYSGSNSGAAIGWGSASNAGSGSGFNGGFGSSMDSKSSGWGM

fold increase in co-precipitation relative to the WT variant: ~2.5 fold
B1: dephosphomimetic S25A SIRT2-GFP (enzyme, UniProt Q8IXJ6 1-389, looked up)
chain: MAEPDPSHPLETQAGKVQEAQDSDADSEGGAAGGEADMDFLRNLFSQTLSLGSQKERLLDELTLEGVARYMQSERCRRVICLVGAGISTSAGIPDFRSPSTGLYDNLEKYHLPYPEAIFEISYFKKHPEPFFALAKELYPGQFKPTICHYFMRLLKDKGLLLRCYTQNIDTLERIAGLEQEDLVEAHGTFYTSHCVSASCRHEYPLSWMKEKIFSEVTPKCEDCQSLVKPDIVFFGESLPARFFSCMQSDFLKVDLLLVMGTSLQVQPFASLISKAPLSTPRLLINKEKAGQSDPFLGMIMGLGGGMDFDSKKAYRDVAWLGECDQGCLALAELLGWKKELEDLVRREHASIDAQSGAGVPNPSTSASPKKSPPPAKDEARTTEREKPQ
notes: Sirtuin 2 (SIRT2) with the dephosphomimetic change S25A; also called S25A dephosphomimetic; source: HeLa, co-transfected, in lysate
